Results published in patent publication US12466852B2, “Method for extraction and purification of hirudin mutant and use thereof” (SUNGEN BIOSCIENCE CO., LTD., priority 2019, dated 2025).
Entries after “also recorded” stand apart in the source; their conditions may differ.

Key:
blood coagulation = test: effects of the amount of hirudin mutant HV2-Lys47 in the blood collection tube on blood coagulation; conditions: for Coagulation: blood collection volume 2
Experimental: Effects of the amount of the hirudin mutant HV2-Lys47, which was prepared and vacuum-lyophilized in Example 9, on blood coagulation were as shown in Table 2 below:
It can be seen from the above table that anticoagulant effect can be achieved when the amount of the hirudin mutant HV2-Lys47 added in the blood collection tube is 0.005 mg or more.

[1] = effects of drying process on the activity of hirudin mutant HV2-Lys47 in anticoagulant blood collection tubes; type: physicochemical; conditions: for Activity after drying / Activity loss: content 306ATU/tube
Experimental: Effects of drying process on the activity of hirudin mutant HV2-Lys47 in anticoagulant blood collection tubes were studied.
The hirudin prepared in Example 9 was dissolved in sterile pure water with a dissolution concentration of 3.4 g/100 ml pure water. 2 ml blood collection tubes were used, and each of them was sprayed with the solution of the prepared hirudin mutant HV2-Lys47 by needle spray, and then dried.
The common drying process in the art is high temperature drying: drying three times at 45° C., 50° C. and 70° C., three times for each temperature, and 60 seconds each time.
The drying method in the present application is: drying the sprayed blood collection tubes in a vacuum lyophilizer at a temperature of −50° C. and a vacuum degree of […].
The effects of high temperature drying and vacuum lyophilization methods on the activity of hirudin mutant HV2-Lys47 were as shown in Table 1 below.

thrombin = thrombin (Homo sapiens, UniProt P00734); test: anticoagulant activity by biochemical method determination (Chinese Pharmacopoeia 2005 edition, page 84)
Experimental: According to the analysis of anticoagulant activity by biochemical method determination, the anticoagulant activity of the prepared hirudin mutant HV2-Lys47 was calculated to be 17000 ATU/mg. For the specific determination of anticoagulant activity, reference may be made to the left column of page 84 of the Chinese Pharmacopoeia (2005 edition). Moreover, the purity of the hirudin mutant HV2-Lys47 calculated according to the proportion of color bands in gel electrophoresis had reached to 95%.

[2] = drying for 40 min at −50° C. and with a vacuum degree of −4 Mpa
[3] = drying three times at 45° C., 60 seconds each time
[4] = drying three times at 50° C., 60 seconds each time
[5] = drying three times at 70° C., 60 seconds each time

B1: hirudin mutant HV2-Lys47: hirudin mutant of SEQ ID NO.: 1; asparagine at position 47 of natural hirudin substituted by lysine; produced by Escherichia coli fermentation (protein)
chain: ITYTDCTESGQNLCLCEGSNVCGKGNKCILGSNGKGNQCVTGEGTPKPESHNNGDFEEIPEEYLQ
amount added in the blood collection tube at which anticoagulant effect can be achieved (blood coagulation; 2 ml blood collection): ≥ 0.005 mg
Coagulation (blood coagulation; amount 0.001): Quick coagulation
Coagulation (blood coagulation; amount 0.005): No coagulation
Coagulation (blood coagulation; amount 0.008): No coagulation
Coagulation (blood coagulation; amount 0.02): No coagulation
Coagulation (blood coagulation; amount 0.08): No coagulation
Coagulation (blood coagulation; amount 0.16): No coagulation
Coagulation (blood coagulation; amount 0.5): No coagulation
Coagulation (blood coagulation; amount 1): No coagulation
Coagulation (blood coagulation; amount 5): No coagulation
Coagulation (blood coagulation; amount 10): No coagulation
Coagulation (blood coagulation; amount 15): No coagulation
Coagulation (blood coagulation; amount 20): No coagulation
Activity after drying [1, 2]: 304 ATU/tube
Activity loss [1, 2]: 0.65%
Activity after drying [1, 3]: 276 ATU/tube
Activity loss [1, 3]: 9.8%
Activity after drying [1, 4]: 245 ATU/tube
Activity loss [1, 4]: 19.9%
Activity after drying [1, 5]: 160 ATU/tube
Activity loss [1, 5]: 47.7%
loss of hirudin activity ([1]; high-temperature drying process generally used in production of a blood collection tube): about 10%
hirudin activity loss (in words) ([1]; vacuum lyophilization): no hirudin activity loss; also recorded: not lost
anticoagulant activity (thrombin; prepared in Example 1 (tube centrifuge, ethanol precipitation)): 17000 ATU/mg
anticoagulant activity (thrombin; prepared in Example 2 (disk centrifuge, 8% salt)): 15800 ATU/mg
anticoagulant activity (thrombin; prepared in Example 3 (ceramic membrane)): 16800 ATU/mg
anticoagulant activity (thrombin; prepared in Example 4 (hollow fiber membrane)): 16000 ATU/mg
anticoagulant activity (thrombin; prepared in Example 5 (methanol precipitation)): 15800 ATU/mg
anticoagulant activity (thrombin; prepared in Example 6 (acetone precipitation)): 17000 ATU/mg
anticoagulant activity (thrombin; prepared in Example 7 (ammonium sulfate precipitation)): 15000 ATU/mg
anticoagulant activity (thrombin; prepared in Example 8 (ceramic membrane, nanofiltration, sodium chloride precipitation)): 14500 ATU/mg
anticoagulant activity (thrombin; prepared in Example 9 (isopropanol precipitation)): 18000 ATU/mg
